In patent publication US20190241648A1 (STATEN BIOTECHNOLOGY B V, published 2019):
Ends that are not written are not given here.

What was measured:
Test in all cases: cyclic peptide substitution array
ApoC3 peptide D68C = biological target: T1, ApoC3 peptide D68C (human, cyclic (thioether))
T1 peptide: DKFSEFWDLCPEV
Method in brief: (§1)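 Peptide microarrays incubated with antibody samples, then stained with goat anti-human IgG (Fc) DyLight680 and anti-HA DyLight800 control antibodies, scanned at intensity 7/7 (red/green). Secondary-only pre-stain checked background binding; framing HA peptides served as quality control; substitution effects read as changes in spot intensity.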

ApoC3 peptide F61D = biological target: T2, ApoC3 peptide F61D (human, cyclic (thioether))
T2 peptide: DKDSEFWDLDPEV
Method in brief: as §1

ApoC3 peptide E63D = biological target: T3, ApoC3 peptide E63D (human, not fully specified; cyclic (thioether))
T3 peptide: DKFSDFWDLDPEV
Method in brief: as §1

ApoC3 peptide D66E = biological target: T4, ApoC3 peptide D66E (human, not fully specified; cyclic (thioether))
T4 peptide: DKFSEFWELDPEV
Method in brief: as §1

ApoC3 peptide P69E = biological target: T5, ApoC3 peptide P69E (human, not fully specified; cyclic (thioether))
T5 peptide: DKFSEFWDLDEEV
Method in brief: as §1

ApoC3 peptide K60F = biological target: T6, ApoC3 peptide K60F (human, cyclic (thioether))
T6 peptide: DFFSEFWDLDPEV
Method in brief: as §1

ApoC3 peptide L67F = biological target: T7, ApoC3 peptide L67F (human, thioether (positions not given here); not fully specified (bridges); also: thioether between a C-terminal Cys side chain and a modified N-terminus, the Cys is not in the chain)
T7 peptide: DKFSEFWDFDPEV
Method in brief: as §1

ApoC3 peptide K60G = biological target: T8, ApoC3 peptide K60G (human, cyclic (thioether))
T8 peptide: DGFSEFWDLDPEV
Method in brief: as §1

ApoC3 peptide P69I = biological target: T9, ApoC3 peptide P69I (human, not fully specified; cyclic (thioether))
T9 peptide: DKFSEFWDLDIEV
Method in brief: as §1

ApoC3 peptide E70I = biological target: T10, ApoC3 peptide E70I (human, cyclic (thioether))
T10 peptide: DKFSEFWDLDPIV
Method in brief: as §1

ApoC3 peptide E63K = biological target: T11, ApoC3 peptide E63K (human, cyclic (thioether))
T11 peptide: DKFSKFWDLDPEV
Method in brief: as §1

ApoC3 peptide L67K = biological target: T12, ApoC3 peptide L67K (human, thioether (positions not given here); not fully specified (bridges); also: thioether between a C-terminal Cys side chain and a modified N-terminus, the Cys is not in the chain)
T12 peptide: DKFSEFWDKDPEV
Method in brief: as §1

ApoC3 peptide P69L = biological target: T13, ApoC3 peptide P69L (human, not fully specified; cyclic (thioether))
T13 peptide: DKFSEFWDLDLEV
Method in brief: as §1

ApoC3 peptide E63N = biological target: T14, ApoC3 peptide E63N (human, cyclic (thioether))
T14 peptide: DKFSNFWDLDPEV
Method in brief: as §1

ApoC3 peptide F64N = biological target: T15, ApoC3 peptide F64N (human, thioether (positions not given here); not fully specified (bridges); also: cyclic (thioether), positions not given here)
T15 peptide: DKFSENWDLDPEV
Method in brief: as §1

ApoC3 peptide D68N = biological target: T16, ApoC3 peptide D68N (human, cyclic (thioether))
T16 peptide: DKFSEFWDLNPEV
Method in brief: as §1

ApoC3 peptide V71N = biological target: T17, ApoC3 peptide V71N (human, thioether (positions not given here); also: cyclic (thioether), ring places not given here)
T17 peptide: DKFSEFWDLDPEN
Method in brief: as §1

ApoC3 peptide W65P = biological target: T18, ApoC3 peptide W65P (human, cyclic (thioether))
T18 peptide: DKFSEFPDLDPEV
Method in brief: as §1

ApoC3 peptide D66P = biological target: T19, ApoC3 peptide D66P (human, not fully specified; cyclic (thioether))
T19 peptide: DKFSEFWPLDPEV
Method in brief: as §1

ApoC3 peptide D68R = biological target: T20, ApoC3 peptide D68R (human, cyclic (thioether))
T20 peptide: DKFSEFWDLRPEV
Method in brief: as §1

ApoC3 peptide P69R = biological target: T21, ApoC3 peptide P69R (human, not fully specified; cyclic (thioether))
T21 peptide: DKFSEFWDLDREV
Method in brief: as §1

ApoC3 peptide L67S = biological target: T22, ApoC3 peptide L67S (human, thioether (positions not given here); not fully specified (bridges); also: thioether between a C-terminal Cys side chain and a modified N-terminus, the Cys is not in the chain)
T22 peptide: DKFSEFWDSDPEV
Method in brief: as §1

ApoC3 peptide D68T = biological target: T23, ApoC3 peptide D68T (human, cyclic (thioether))
T23 peptide: DKFSEFWDLTPEV
Method in brief: as §1

ApoC3 peptide F61V = biological target: T24, ApoC3 peptide F61V (human, cyclic (thioether))
T24 peptide: DKVSEFWDLDPEV
Method in brief: as §1

ApoC3 peptide E63V = biological target: T25, ApoC3 peptide E63V (human, cyclic (thioether))
T25 peptide: DKFSVFWDLDPEV
Method in brief: as §1

ApoC3 peptide F64V = biological target: T26, ApoC3 peptide F64V (human, thioether (positions not given here); not fully specified (bridges); also: cyclic (thioether), positions not given here)
T26 peptide: DKFSEVWDLDPEV
Method in brief: as §1

ApoC3 peptide W65V = biological target: T27, ApoC3 peptide W65V (human, cyclic (thioether))
T27 peptide: DKFSEFVDLDPEV
Method in brief: as §1

ApoC3 peptide E70V = biological target: T28, ApoC3 peptide E70V (human, cyclic (thioether))
T28 peptide: DKFSEFWDLDPVV
Method in brief: as §1

ApoC3 peptide D59Y = biological target: T29, ApoC3 peptide D59Y (human, not fully specified; cyclic (thioether))
T29 peptide: YKFSEFWDLDPEV
Method in brief: as §1

ApoC3 peptide P69Y = biological target: T30, ApoC3 peptide P69Y (human, not fully specified; cyclic (thioether))
T30 peptide: DKFSEFWDLDYEV
Method in brief: as §1

ApoC3 peptide F61A = biological target: T31, ApoC3 peptide F61A (human, cyclic (thioether))
T31 peptide: DKASEFWDLDPEV
Method in brief: as §1

ApoC3 peptide F61C = biological target: T32, ApoC3 peptide F61C (human, cyclic (thioether))
T32 peptide: DKCSEFWDLDPEV
Method in brief: as §1

B1: Llama antibody 5E5 (antibody, V domains shown)
VH: QLQLVESGGGLVQPGGSLRLSCAASGFTFGTYSMRWVRQVPRKALEWVSSISTDGGGTAYRDSVKGRFTISRDNAKNTLYLQMNNLKPEDTAIYYCVIAGYSDWGQGTQVTVSS
VL: ATMLTQSPGSLSVVPGESASISCKTSQGLVHSDGKTYFYWFLQKPGQSPQQLIYQVSNRASGVPDRFTGSGSGTDFTLKISGVKAEDAGVYYCAQGTYYPHTFGSGTRLEIK
notes: detected with goat anti-human IgG (Fc); also called mAb 5E5
% of binding to wild-type peptide (ApoC3 peptide D68C): 5.46% | % of binding to wild-type peptide (ApoC3 peptide F61D): 16% | % of binding to wild-type peptide (ApoC3 peptide E63D): 29.9% | % of binding to wild-type peptide (ApoC3 peptide D66E): 2.16% | % of binding to wild-type peptide (ApoC3 peptide P69E): 43% | % of binding to wild-type peptide (ApoC3 peptide K60F): 53.2% | % of binding to wild-type peptide (ApoC3 peptide L67F): 0.37% | % of binding to wild-type peptide (ApoC3 peptide K60G): 143% | % of binding to wild-type peptide (ApoC3 peptide P69I): 48% | % of binding to wild-type peptide (ApoC3 peptide E70I): 65.6% | % of binding to wild-type peptide (ApoC3 peptide E63K): 19.1% | % of binding to wild-type peptide (ApoC3 peptide L67K): 45.6% | % of binding to wild-type peptide (ApoC3 peptide P69L): 16.7% | % of binding to wild-type peptide (ApoC3 peptide E63N): 31.3% | % of binding to wild-type peptide (ApoC3 peptide F64N): 234% | % of binding to wild-type peptide (ApoC3 peptide D68N): 0% | % of binding to wild-type peptide (ApoC3 peptide V71N): 86.6% | % of binding to wild-type peptide (ApoC3 peptide W65P): 0% | % of binding to wild-type peptide (ApoC3 peptide D66P): 0% | % of binding to wild-type peptide (ApoC3 peptide D68R): 0% | % of binding to wild-type peptide (ApoC3 peptide P69R): 20.1% | % of binding to wild-type peptide (ApoC3 peptide L67S): 36.5% | % of binding to wild-type peptide (ApoC3 peptide D68T): 0.65% | % of binding to wild-type peptide (ApoC3 peptide F61V): 20.2% | % of binding to wild-type peptide (ApoC3 peptide E63V): 4.2% | % of binding to wild-type peptide (ApoC3 peptide F64V): 117% | % of binding to wild-type peptide (ApoC3 peptide W65V): 17.9% | % of binding to wild-type peptide (ApoC3 peptide E70V): 57% | % of binding to wild-type peptide (ApoC3 peptide D59Y): 50.3% | % of binding to wild-type peptide (ApoC3 peptide P69Y): 15.4% | % of binding to wild-type peptide (ApoC3 peptide F61A): 17.4% | % of binding to wild-type peptide (ApoC3 peptide F61C): 0.51%
